We go through six substances from PMC6905151.

Like-named read-outs stand apart in the source and are kept apart here.

The target of test [1] is IgM (Homo sapiens) (UniProt P01871). As to conditions: cited from earlier work.
For test [2], the target named is IgM-Fc (Fcμ2-4) mutant M1 (K361D/D416R) (human). Put plainly: SEC-MALS; SEC-MALLS on Superdex 200 Increase 5/150 with in-line miniDAWN detector and refractometer; peaks of the homodimeric Fcμ2-4 proteins from SEC. (In general: In gel filtration, larger molecules generally elute earlier.)
Test [3] has as its target IgM-Fc (Fcμ2-4) mutant M2 (Q510R) (human). The test is described as above.
Test [4] deals with IgM-Fc (Fcμ2-4) mutant M3 (D340S/Q341G/D342S/T343S) (human). The description is as above.
The target of test [5] is IgM-Fc (Fcμ2-4) wild-type, dimer of Cμ2-Cμ3-Cμ4 domains (human). The description is as above.
In test [6] the target is Fcμ3-4, dimer of Cμ3-Cμ4 domains (human). The test can be described thus: SPR; Biacore T200, 25 °C, 0.01 M HEPES, 0.15 M NaCl, 0.005% Surfactant P20, pH 7.4; IgM, IgM-Fc, Fcμ3-4 or IgM-Fc mutants immobilised on CM5 by amine coupling; analyte sIgFcμR 0.25 μM to 12 μM; steady state, 1:1 binding model.
Sequence of Fcμ3-4, dimer of Cμ3-Cμ4 domains (human) (P01871 other isoform, or with tags, fused parts or gaps): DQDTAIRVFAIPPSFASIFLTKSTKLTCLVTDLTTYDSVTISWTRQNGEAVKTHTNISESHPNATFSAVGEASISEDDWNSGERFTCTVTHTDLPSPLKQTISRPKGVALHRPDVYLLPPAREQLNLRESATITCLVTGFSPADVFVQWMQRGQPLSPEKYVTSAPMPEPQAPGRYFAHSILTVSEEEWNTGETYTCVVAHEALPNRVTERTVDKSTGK
Test [7] addresses IgM-Fc (Fcμ2-4) wild-type, dimer of Cμ2-Cμ3-Cμ4 domains (human). The description is as above.
The target in test [8] is purified serum IgM (whole pentameric IgM) (human). The test is described as above.
For test [9], the target named is IgM-Fc (Fcμ2-4) mutant M3 (D340S/Q341G/D342S/T343S) (human). The description is as above.
For test [10], the target named is IgM-Fc (Fcμ2-4) wild-type, dimer of Cμ2-Cμ3-Cμ4 domains (human). Described as above. The source holds these as a separate data set.

Sequence of IgM (Homo sapiens) (P01871 whole entry): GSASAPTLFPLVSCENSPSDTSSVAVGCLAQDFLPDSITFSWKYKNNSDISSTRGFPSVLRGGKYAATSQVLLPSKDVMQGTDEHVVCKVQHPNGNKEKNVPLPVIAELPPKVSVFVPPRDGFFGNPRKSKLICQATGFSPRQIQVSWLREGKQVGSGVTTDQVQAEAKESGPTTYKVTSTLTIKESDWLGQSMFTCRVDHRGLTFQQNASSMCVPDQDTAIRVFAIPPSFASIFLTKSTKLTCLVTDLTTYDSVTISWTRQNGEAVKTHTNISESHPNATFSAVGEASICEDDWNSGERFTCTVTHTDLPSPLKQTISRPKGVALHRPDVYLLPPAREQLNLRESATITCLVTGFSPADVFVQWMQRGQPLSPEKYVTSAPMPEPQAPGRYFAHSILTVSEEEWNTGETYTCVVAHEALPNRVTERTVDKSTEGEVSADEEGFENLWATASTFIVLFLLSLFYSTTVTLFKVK
Sequence of FcμR (cell surface) (O60667 17-390): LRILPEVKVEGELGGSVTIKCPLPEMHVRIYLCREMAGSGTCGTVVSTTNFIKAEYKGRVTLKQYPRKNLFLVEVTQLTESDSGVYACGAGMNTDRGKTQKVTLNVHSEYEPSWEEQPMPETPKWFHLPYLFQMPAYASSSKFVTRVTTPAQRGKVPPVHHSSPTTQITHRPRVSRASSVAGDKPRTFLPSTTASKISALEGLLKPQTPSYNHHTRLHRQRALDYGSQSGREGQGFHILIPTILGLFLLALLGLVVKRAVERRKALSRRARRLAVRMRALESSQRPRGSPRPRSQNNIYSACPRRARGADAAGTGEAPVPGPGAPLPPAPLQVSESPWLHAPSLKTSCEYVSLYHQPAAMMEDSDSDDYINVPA

For orientation: Kd means the free concentration of one partner at which half of the binding sites on the other are occupied at equilibrium, for simple one-to-one binding. For “FcμR (cell surface) (from UniProt O60667)”, the dissociation constant (Kd) in test [1] is 10 nM.
Usually stoichiometry N stands for a count of units in the complex or per binding partner. Turning to “IgM-Fc (Fcμ2-4) mutant M1 (K361D/D416R) (domain or fragment)”, the stoichiometry N in [2] was determined as 2.
As to “IgM-Fc (Fcμ2-4) mutant M2 (Q510R) (domain or fragment)”, the stoichiometry N in test [3] amounted to 2.
On to “IgM-Fc (Fcμ2-4) mutant M3 (D340S/Q341G/D342S/T343S) (domain or fragment)”, for which the stoichiometry N in test [4] came out at 2.
Substance “IgM-Fc (Fcμ2-4) wild-type, dimer of Cμ2-Cμ3-Cμ4 domains (domain or fragment)” gave a stoichiometry N in test [5] of 2.
As for “soluble extracellular immunoglobulin-like domain of FcμR (domain or fragment)”, the stoichiometry N (sIgFcμR per IgM-Fc homodimer) in [6], in [7] and in test [8] was 2 each time. Also, the Kd in test [7] stood at 1150 nM; in test [8], 2490 nM; in test [9] it was 1450 nM; in test [10], 1830 nM.
